Experimental findings from PMC9530591 are described below.

The target in this experiment is HA1-trimer (influenza A virus H1N1 A/California/07/2009). Description: AUC.

What is called stoichiometry N is a count of units in the complex or per binding partner. For the substance HA1-trimer, the stoichiometry N was 3.
